“Also recorded” adds a separate entry of the source.
Experiments:
recombinant Nodal = target: T1, recombinant Nodal (Homo sapiens, UniProt Q96S42); experiment: SPR dose-dependent binding of human recombinant Nodal to 3D1 immobilized on the CM5 sensor chip; set-up: E. coli derived His238 Leu347, with an N-terminal Met; purchased R&D System 3218ND; host or cells: E. coli; details: rhNodal injected, read-out: estimated KD
T1 sequence (Q96S42 238-347): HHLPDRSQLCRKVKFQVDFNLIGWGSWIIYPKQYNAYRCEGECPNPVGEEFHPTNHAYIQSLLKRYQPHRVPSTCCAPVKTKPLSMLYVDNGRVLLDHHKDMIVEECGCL
Description: Dose-dependent binding of human recombinant Nodal to 3D1 antibody immobilized on the CM5 sensor chip was characterized.

[1] = system: MDA-MB-231 breast cancer cells; experiment: Western blot analysis of MDA-MB-231 breast cancer cells treated with 3D1; type: cell-based, human; details: 72 hrs
Method: (§1) To determine the level of Nodal expression in brain, kidney, liver, pancreas, heart and skeletal muscle ready to use adult tissue extracts for Western blotting (WB) were purchased from Santa Cruz Biotechnology. For WB experiments of cell lines, whole cell lysates were prepared and quantified. SDS-PAGE gel electrophoresis and WB were performed using standard techniques. PVDF membranes were blocked in 5% non-fat milk or 5% BSA and antibodies diluted in either 5% non-fat milk or 5% bovine serum albumin overnight at 4° C., depending on the manufacturer's recommendations. Signal was detected using West Pico chemiluminescence reagent (Thermo Fisher) and exposure to x-ray film.

[2] = system: A375SM human melanoma cell line; experiment: Western blot of A375SM cells treated with BRAFi (dabrafenib) or 3D1; type: cell-based; details: 72 hr
Method: as §1

C8161 cells = experiment: C8161 orthotopic (subcutaneous) xenograft in Nude mice, intratumoral treatment; type: in vivo
Method: Experiments were carried out to determine the in vivo effects of 3D1 mAb on primary melanoma. To this end, 500,000 C8161 cells were injected subcutaneously in Nude mice. Palpable tumors were then injected directly with either 700 μg of total 3D1 mAb or IgG control antibody (alternate day intratumoral injection of 100 μg over 14 days). Mice were then sacrificed and subcutaneous tumors harvested and processed as previously described. To evaluate the effect of 3D1 mAb in the presence of the BRAF(V600E) mutation, a third orthotopic xenograft model was established in Nude mice via subcutaneous injection of approximately 150,000 A375SM human metastatic melanoma cells. Mice were treated IP with 3D1 mAb or IgG control, as described above, or 3 mg/kg of dabrafenib.
Four micron thick, formalin fixed, paraffin embedded tissue sections were prepared and immunohistochemistry was carried out on a Dako Plus autostainer (DAKO, Inc, Carpenteria, Calif.). […] Similar to the lung tumor burden evaluation described above, mean percentage of positive staining±SEM was determined by 2 different observers, each calculating the ratio of positive cells/total number of cells×100 for 4 separate high power fields (63× objective) from at least 2 different mice per group.

[3] = system: C8161 metastatic melanoma cells; experiment: C8161 lung colonization (metastasis) model in Nude mice; type: in vivo; details: for lung colonization: IP 3D1 vs IgG control
Method: Lung tumor burden was determined as the mean percentage of lung occupied by C8161 melanoma cell colonies calculated from at least 5 different lung sections per individual mouse (See FIG. 26). Experimental Protocol: 250,000 C8161 metastatic melanoma cells were injected i. v. in Nude mice and lung colonization established. Following colonization, animals received by i.p. delivery either 3D1 monoclonal anti-Nodal antibody (100 μg/injection) or control IgG over the next 10 days, every other day (5 total injections).
To evaluate the in vivo effects of 3D1 mAb, a metastatic melanoma lung metastasis model was established by injecting 250,000 C8161 cells intravenously in Nude mice. After 4 days during which cells were allowed to colonize the lungs, mice were separated into treatment and control groups. The treatment group received a total of 500 μg of 3D1 mAb versus 500 μg of irrelevant isotype IgG in the control group administered over 10 days (alternate day intraperitoneal injection (IP) of 100 μg of either 3D1 mAb or IgG). At the end of the treatment period, mice were sacrificed and lungs harvested and processed for histologic evaluation of lung tumor burden and immunohistochemistry. Lung tumor burden was determined by evaluating the mean percentage of lung tissue occupied by C8161 in at least 4 separate fields at low power (10× objective) in lungs from at least 4 separate mice for each group and performed by 2 different observers. A final mean±SEM was calculated from the separate means determined by the individual observers.
Four micron thick, formalin fixed, paraffin embedded tissue sections were prepared and immunohistochemistry was carried out on a Dako Plus autostainer (DAKO, Inc, Carpenteria, Calif.). Following antigen retrieval and blocking steps, sections were incubated in primary antibody for 60 mins, followed by appropriate biotinylated secondary antibody (Biocare Medical, Conrad, Calif.), and then streptavidin-horseradish peroxidase (Thermo Scientific Lab Vision). Color was developed with 3,3′-diaminobenzidine substrate (Thermo Scientific Lab Vision) and sections were counterstained with hematoxylin (Biocare Medical, LLC). As a negative control, adjacent serial sections were incubated with species appropriate irrelevant IgG (Jackson ImmunoResearch Labs) at the same concentration as primary antibodies. Similar to the lung tumor burden evaluation described above, mean percentage of positive staining±SEM was determined by 2 different observers, each calculating the ratio of positive cells/total number of cells×100 for 4 separate high power fields (63× objective) from at least 2 different mice per group.

- Kd (recombinant Nodal): 6.6 nM
B1: 3D1: mouse monoclonal anti-Nodal antibody raised against hNodal(44-67); light chain SEQ ID NO:1, heavy chains SEQ ID NO:2 and 3 (protein)
light: DIKMTQSPASLSASVGETVTITCRASGNIHNYLAWYQQKQGKSPQLLVYNAKTLADGVPSRFSGSGSGTQYSLKINSLQPEDFGSYYCQHFWSTPHVRCWDQAGTETEAW
heavy 1: VKLVESGGGLVKPGGSLKLSCAASGFTFSSYAMSWVRQTPEKRLEWVASISSGGCTYYPDSVKGRFTISRDNARNILYLQMSSLRSEDTAMYYCARGSMITADGNSLLLCYGLLGSRNLXHR
heavy 2: VKLVESGGGLVQPGGSMKLSCVASGFTFRNYWMSWVRQSPEKGLEWVAEIRLKSDNYAARYAESVKGKFTISRDDSKSRLYLQMNSLRAEDTGIYYCTGIRRFAYWGQGTL
modifications: not fully specified; (120)..(120) Xaa can be any naturally occurring amino acid
- Nodal expression and P-H3 by WB [1]: noteworthy reduction
- reduction in Nodal ([1]; 4 μg/ml, vs IgG control): 45%
- reduction in the level of the proliferation/mitosis marker P-H3 ([1]; 4 μg/ml, vs IgG control): 49%
- Nodal expression [2]: more dramatic reduction in Nodal expression
- Nodal expression ([2]; listed as 3D1 mAb): significantly reduced
- mean percentage (±SEM) of cells with strong positive nuclear P-Smad2 staining (C8161 cells; IHC of tumor sections, N=4): 51.3%±3.3%
- tumor volumes (C8161 cells; direct intratumoral injection, days 8 to 14, vs IgG control, listed as 3D1 mAb): significantly smaller; also recorded: Reduced tumor volumes
- mean percentage (±SEM) of cells staining for p27 in lung colonies ([3]; IHC, N=6): 39.5%±17%
- mean percentage (±SEM) of cells with nuclear localization of P-Smad2 in lung colonies ([3]; IHC, N=6): 39±8.9%
- percentage (+/−SEM) of cells staining for Cyclin B1 in lung colonies ([3]; IHC, N=6): 25.9%±9.4%
- lung tumor burden: mean percentage (±SEM) of lung tissue occupied by C8161 colonies ([3]; IP 100 μg alternate days over 10 days, N=8): 25.8%±4.6%
- lung colonization [3]: reduced lung colonization
- lung colonization ([3]; listed as 3D1 mAb): significantly reduced

Reference: US10508147B2, “Anti-nodal antibodies and methods of using same” (ANN AND ROBERT H. LURIE CHILDREN'S HOSPITAL OF CHICAGO, priority 2014, dated 2019)
